The source of these data is article PMC7301450.

In this assay the target is α-CD64-scFv. Kind of assay: ELISA; wells coated with 10 μg/mL α-CD64-scFv overnight at 4 °C, blocked with 3% BSA/PBS; recombinant CD64 at 0, 0.5, 1.0, 5.0 and 10 ng/mL, room temperature 2 h; detected with rabbit anti-CD64 polyclonal antibody, anti-rabbit HRP and TMB, read at 370 nm.
Chain of α-CD64-scFv (heavy, as listed by the source, chain 1 of 2): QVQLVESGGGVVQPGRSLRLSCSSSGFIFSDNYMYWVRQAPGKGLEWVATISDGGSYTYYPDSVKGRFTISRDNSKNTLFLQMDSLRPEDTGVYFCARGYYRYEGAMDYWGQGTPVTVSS
Chain of α-CD64-scFv (light, as listed by the source, chain 2 of 2): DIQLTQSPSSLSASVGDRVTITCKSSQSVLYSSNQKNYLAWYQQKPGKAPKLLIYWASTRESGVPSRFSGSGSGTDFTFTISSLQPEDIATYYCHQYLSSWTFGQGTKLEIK

Turning to “recombinant human CD64 (from UniProt P12314 16-292) (receptor)”, the maximum absorbance (at 5 ng/mL CD64) amounted to 0.236 absorbance.
